The experiment addresses Rpc160-HTP (largest subunit of RNAPIII, C-terminally His6–TEV–Protein A tagged) (S. cerevisiae) (UniProt P04051). The experiment can be described thus: affinity purification with mass spectrometry; Rpc160-HTP as bait; as a3 but lysate treated with RNase A (20 μg/ml, 20 min at 25°C); label-free quantitative MS.
Sequence of UniProt P04051 (P04051 whole entry): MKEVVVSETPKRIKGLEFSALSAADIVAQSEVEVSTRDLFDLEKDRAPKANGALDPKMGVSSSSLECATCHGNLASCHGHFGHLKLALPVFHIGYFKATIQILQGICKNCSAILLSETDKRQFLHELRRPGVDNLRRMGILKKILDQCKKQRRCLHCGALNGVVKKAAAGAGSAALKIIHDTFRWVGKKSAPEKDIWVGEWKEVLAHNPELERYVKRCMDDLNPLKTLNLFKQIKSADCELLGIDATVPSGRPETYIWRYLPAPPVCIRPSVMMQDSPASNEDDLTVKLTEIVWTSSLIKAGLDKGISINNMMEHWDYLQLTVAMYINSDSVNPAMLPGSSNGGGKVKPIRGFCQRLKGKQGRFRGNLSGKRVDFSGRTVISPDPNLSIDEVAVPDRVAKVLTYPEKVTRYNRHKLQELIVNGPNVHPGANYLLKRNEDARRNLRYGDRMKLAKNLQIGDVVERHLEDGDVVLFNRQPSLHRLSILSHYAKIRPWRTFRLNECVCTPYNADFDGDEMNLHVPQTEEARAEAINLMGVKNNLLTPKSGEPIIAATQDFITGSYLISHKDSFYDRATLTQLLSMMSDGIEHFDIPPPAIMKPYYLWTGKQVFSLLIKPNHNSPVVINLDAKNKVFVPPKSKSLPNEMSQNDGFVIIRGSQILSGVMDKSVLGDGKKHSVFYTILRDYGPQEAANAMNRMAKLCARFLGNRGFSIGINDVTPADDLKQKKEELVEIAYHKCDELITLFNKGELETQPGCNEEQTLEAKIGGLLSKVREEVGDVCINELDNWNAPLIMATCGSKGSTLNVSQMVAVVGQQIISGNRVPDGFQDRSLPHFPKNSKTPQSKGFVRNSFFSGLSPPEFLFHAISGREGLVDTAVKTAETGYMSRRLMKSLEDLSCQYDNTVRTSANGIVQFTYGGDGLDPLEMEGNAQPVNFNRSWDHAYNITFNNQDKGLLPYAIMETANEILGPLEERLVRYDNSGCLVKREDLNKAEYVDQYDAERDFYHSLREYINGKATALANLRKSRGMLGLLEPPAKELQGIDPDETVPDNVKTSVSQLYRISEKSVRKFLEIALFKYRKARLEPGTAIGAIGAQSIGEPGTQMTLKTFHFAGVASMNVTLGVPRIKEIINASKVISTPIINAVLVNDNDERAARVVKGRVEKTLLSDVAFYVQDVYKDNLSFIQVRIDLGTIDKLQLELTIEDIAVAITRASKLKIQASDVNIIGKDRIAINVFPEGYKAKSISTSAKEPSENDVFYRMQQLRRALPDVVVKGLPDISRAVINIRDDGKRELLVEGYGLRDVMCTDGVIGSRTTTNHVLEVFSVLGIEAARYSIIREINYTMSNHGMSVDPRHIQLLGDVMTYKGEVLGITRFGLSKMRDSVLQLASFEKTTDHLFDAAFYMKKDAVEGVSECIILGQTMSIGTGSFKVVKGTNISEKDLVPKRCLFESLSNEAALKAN

The substance “Sen1 (untagged, in cells expressing Rpc160-HTP, SEN1 background) (from UniProt Q00416 1-2231) (natural protein)” had a fold decrease of RNAPIII-bound Sen1 with RNase A treatment against no treatment of 2 fold.

Values taken from article PMC9278858.
